From patent US20230365641
Values joined by “and” are separate entries in the source; they are usually repeats but may differ in a detail not shown here. Identical values can stand only once.

B1: recombinant human MMP-2 (protein)
chain: YNFFPRKPKWDKNQITYRIIGYTPDLDPETVDDAFARAFQVWSDVTPLRFSRIHDGEADIMINFGRWEHGDGYPFDGKDGLLAHAFAPGTGVGGDSHFDDDELWTLGEGQVVRVKYGNADGEYCKFPFLFNGKEYNSCTDTGRSDGFLWCSTTYNFEKDGKYGFCPHEALFTMGGNAEGQPCKFPFRFQGTSYDSCTTEGRTDGYRWCGTTEDYDRDKKYGFCPETAMSTVGGNSEGAPCVFPFTFLGNKYESCTSAGRSDGKMWCATTANYDDDRKWGFCPDQGYSLFLVAAHEFGHAMGLEHSQDPGALMAPIYTYTKNFRLSQDDIKGIQELYGASPDIDLGTGPTPTLGPVTPEICKQDIVFDGIAQIRGEIFFFKDRFIWRTVTPRDKPMGPLLVATFWPELPEKIDAVYEAPQEEKAVFFAGNEYWIYSASTLERGYPKPLTSLGLPPDVQRVDAAFNWSKNKKTYIFAGDKFWRYNEVKKKMDPGFPKLIADAWNAIPDNLDAVVDLQGGGHSYFFKGAYYLKLENQSLKSVKFGSIKSDWLGC
TC53
  Est. kcat/KM: 4900 M⁻¹ s⁻¹ and 4700 M⁻¹ s⁻¹
TC57
  Est. kcat/KM: 4000 M⁻¹ s⁻¹ and 4400 M⁻¹ s⁻¹
TC68
  Est. kcat/KM: 3800 M⁻¹ s⁻¹
TC69
  Est. kcat/KM: 51000 M⁻¹ s⁻¹ and 50000 M⁻¹ s⁻¹
TC70
  Est. kcat/KM: 11000 M⁻¹ s⁻¹
TC71
  Est. kcat/KM: 130000 M⁻¹ s⁻¹ and 140000 M⁻¹ s⁻¹
TC73
  Est. kcat/KM: 43000 M⁻¹ s⁻¹ and 41000 M⁻¹ s⁻¹
TC74
  Est. kcat/KM: 9600 M⁻¹ s⁻¹ and 9800 M⁻¹ s⁻¹
TC75
  Est. kcat/KM: 120000 M⁻¹ s⁻¹ and 110000 M⁻¹ s⁻¹

B2: recombinant human MMP-7 (protein)
chain: YSLFPNSPKWTSKVVTYRIVSYTRDLPHITVDRLVSKALNMWGKEIPLHFRKVVWGTADIMIGFARGAHGDSYPFDGPGNTLAHAFAPGTGLGGDAHFDEDERWTDGSSLGINFLYAATHELGHSLGMGHSSDPNAVMYPTYGNGDPQNFKLSQDDIKGIQKLYGKRSNSRKK
TC24
Chain of TC24 (chain, as listed by the source, chain 1 of 3, other chains not shown): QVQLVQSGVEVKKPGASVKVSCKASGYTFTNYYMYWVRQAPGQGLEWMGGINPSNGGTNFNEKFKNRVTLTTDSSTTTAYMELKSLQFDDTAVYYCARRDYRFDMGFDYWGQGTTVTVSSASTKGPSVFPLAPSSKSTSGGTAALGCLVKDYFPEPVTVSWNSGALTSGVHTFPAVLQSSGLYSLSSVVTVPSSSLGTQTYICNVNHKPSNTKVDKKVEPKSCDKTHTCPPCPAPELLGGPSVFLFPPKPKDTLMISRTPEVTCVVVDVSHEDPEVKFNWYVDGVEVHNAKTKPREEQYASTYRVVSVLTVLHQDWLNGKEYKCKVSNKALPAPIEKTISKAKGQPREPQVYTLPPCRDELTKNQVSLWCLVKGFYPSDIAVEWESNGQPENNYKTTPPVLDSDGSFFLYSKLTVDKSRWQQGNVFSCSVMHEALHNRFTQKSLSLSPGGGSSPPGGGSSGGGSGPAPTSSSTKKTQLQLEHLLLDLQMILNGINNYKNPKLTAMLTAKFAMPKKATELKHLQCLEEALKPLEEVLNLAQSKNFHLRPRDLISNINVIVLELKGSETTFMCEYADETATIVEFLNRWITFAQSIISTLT
Chain of TC24 (chain, as listed by the source, chain 2 of 3, other chains not shown): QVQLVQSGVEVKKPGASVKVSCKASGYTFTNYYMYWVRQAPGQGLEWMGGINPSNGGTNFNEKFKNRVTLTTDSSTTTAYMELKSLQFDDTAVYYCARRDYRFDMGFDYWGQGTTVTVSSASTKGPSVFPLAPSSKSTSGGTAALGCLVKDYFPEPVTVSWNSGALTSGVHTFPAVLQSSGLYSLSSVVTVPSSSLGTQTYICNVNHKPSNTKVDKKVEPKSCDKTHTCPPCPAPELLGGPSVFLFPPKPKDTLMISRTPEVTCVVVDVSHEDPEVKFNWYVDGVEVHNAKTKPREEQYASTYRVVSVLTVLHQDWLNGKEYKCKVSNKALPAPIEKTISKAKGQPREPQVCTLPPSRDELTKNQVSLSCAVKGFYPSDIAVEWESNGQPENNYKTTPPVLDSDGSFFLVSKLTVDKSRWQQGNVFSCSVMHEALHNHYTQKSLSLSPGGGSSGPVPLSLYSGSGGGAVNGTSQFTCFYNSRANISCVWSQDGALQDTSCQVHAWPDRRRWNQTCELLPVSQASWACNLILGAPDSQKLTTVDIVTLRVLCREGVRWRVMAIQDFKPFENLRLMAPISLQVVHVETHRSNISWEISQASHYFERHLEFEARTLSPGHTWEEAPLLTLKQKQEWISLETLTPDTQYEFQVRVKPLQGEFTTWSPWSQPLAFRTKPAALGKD
  Est. kcat/KM: 140000 M⁻¹ s⁻¹
TC3
Chain of TC3 (chain, as listed by the source, chain 1 of 3, other chains not shown): as the sequence (chain, as listed by the source, chain 1 of 3, other chains not shown) above
Chain of TC3 (chain, as listed by the source, chain 2 of 3, other chains not shown): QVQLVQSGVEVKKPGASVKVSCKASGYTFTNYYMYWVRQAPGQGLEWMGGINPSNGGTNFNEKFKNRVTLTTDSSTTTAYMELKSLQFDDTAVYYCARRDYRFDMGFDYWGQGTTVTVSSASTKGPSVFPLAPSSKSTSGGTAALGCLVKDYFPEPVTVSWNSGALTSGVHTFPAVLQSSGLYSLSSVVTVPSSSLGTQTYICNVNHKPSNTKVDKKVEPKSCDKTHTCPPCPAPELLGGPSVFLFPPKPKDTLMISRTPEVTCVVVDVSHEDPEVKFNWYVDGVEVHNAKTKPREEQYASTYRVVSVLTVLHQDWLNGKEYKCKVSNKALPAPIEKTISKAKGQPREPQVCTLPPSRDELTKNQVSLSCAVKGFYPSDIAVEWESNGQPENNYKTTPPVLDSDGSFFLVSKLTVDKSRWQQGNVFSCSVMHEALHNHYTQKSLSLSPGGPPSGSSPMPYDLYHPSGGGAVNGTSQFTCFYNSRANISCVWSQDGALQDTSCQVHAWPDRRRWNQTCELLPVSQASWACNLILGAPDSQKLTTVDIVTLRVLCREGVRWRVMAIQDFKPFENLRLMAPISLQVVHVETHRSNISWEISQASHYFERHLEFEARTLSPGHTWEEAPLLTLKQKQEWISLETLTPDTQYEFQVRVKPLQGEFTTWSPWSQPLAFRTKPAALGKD
  Est. kcat/KM: 13000 M⁻¹ s⁻¹
TC46
Chain of TC46 (chain, as listed by the source, chain 1 of 3, other chains not shown): as the sequence (chain, as listed by the source, chain 1 of 3, other chains not shown) above
Chain of TC46 (chain, as listed by the source, chain 2 of 3, other chains not shown): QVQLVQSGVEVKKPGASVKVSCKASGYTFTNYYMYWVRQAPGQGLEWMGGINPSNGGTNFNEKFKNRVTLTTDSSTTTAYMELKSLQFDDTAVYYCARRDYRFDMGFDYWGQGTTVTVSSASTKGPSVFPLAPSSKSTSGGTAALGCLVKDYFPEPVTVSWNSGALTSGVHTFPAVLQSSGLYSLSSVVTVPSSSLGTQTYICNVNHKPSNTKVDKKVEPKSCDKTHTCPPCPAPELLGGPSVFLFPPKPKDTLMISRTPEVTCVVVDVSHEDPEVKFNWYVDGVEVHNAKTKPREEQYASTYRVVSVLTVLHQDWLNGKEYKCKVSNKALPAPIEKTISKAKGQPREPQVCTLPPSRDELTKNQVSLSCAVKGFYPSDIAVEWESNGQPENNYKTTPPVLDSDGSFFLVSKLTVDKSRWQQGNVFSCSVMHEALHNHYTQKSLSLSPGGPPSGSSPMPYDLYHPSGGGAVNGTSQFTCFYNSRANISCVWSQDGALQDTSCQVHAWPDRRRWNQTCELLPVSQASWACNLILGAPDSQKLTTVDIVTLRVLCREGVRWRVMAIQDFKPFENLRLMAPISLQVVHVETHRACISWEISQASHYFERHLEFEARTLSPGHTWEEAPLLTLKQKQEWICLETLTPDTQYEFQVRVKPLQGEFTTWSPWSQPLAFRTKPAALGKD
  Est. kcat/KM: 13000 M⁻¹ s⁻¹
TC47
Chain of TC47 (chain, as listed by the source, chain 1 of 3, other chains not shown): as the sequence (chain, as listed by the source, chain 1 of 3, other chains not shown) above
Chain of TC47 (chain, as listed by the source, chain 2 of 3, other chains not shown): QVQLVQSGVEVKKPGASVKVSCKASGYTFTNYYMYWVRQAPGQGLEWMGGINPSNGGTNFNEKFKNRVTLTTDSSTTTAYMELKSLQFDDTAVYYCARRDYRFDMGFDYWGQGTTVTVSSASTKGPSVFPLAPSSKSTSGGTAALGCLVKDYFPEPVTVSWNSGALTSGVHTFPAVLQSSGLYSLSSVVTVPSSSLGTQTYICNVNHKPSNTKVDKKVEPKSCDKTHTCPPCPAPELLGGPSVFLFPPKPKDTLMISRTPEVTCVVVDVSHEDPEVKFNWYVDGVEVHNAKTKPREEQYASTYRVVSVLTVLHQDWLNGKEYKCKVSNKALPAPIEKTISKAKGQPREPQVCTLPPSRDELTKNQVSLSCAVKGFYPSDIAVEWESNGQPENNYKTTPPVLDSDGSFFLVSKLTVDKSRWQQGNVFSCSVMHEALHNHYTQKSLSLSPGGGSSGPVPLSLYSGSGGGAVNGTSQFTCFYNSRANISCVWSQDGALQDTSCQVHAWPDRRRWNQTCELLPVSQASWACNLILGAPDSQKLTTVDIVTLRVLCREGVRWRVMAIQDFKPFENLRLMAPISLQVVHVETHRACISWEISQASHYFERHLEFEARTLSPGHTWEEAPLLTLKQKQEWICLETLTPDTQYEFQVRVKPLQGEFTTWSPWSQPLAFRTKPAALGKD
  Est. kcat/KM: 130000 M⁻¹ s⁻¹
TC53
  Est. kcat/KM: 24000 M⁻¹ s⁻¹ and 23000 M⁻¹ s⁻¹
TC57
  Est. kcat/KM: 13000 M⁻¹ s⁻¹ and 15000 M⁻¹ s⁻¹
TC68
  Est. kcat/KM: 13000 M⁻¹ s⁻¹
TC69
  Est. kcat/KM: 78000 M⁻¹ s⁻¹
TC71
  Est. kcat/KM: 19000 M⁻¹ s⁻¹ and 22000 M⁻¹ s⁻¹
TC73
  Est. kcat/KM: 71000 M⁻¹ s⁻¹ and 67000 M⁻¹ s⁻¹
TC75
  Est. kcat/KM: 18000 M⁻¹ s⁻¹ and 19000 M⁻¹ s⁻¹
